{"source": "ChEMBL document CHEMBL2073921", "about": "“The human T-type amino acid transporter-1: characterization, gene organization, and chromosomal location” (Genomics, 2002)", "proteins": {"B1": {"name": "SLC16A10 protein (Homo sapiens), Q05BR4 (protein)", "chain": "MVLSQEEPDSARGTSEAQPLGPAPTGAAPPPGPGPSDSPEAAVEKVEVELAGPATAEPHEPPEPPEGGWGWLVMLAAMWCNGSVFGIQNACGVLFVSMLETFGSKDDDKMVFKTAWVGSLSMGMIFFCCPIVSVFTDLFGCRKTAVVGAAVGFVGLMSSSFVSSIEPLYLTYGIIFACGCSFAYQPSLVILGHYFKKRLGLVNGIVTAGSSVFTILLPLLLRVLIDSVGLFYTLRVLCIFMFVLFLAGFTYRPLATSTKDKESGGSGSSLFSRKKFSPPKKNFQFCHLQGDSLCSVGSWNTTCTFWILCALCSLGEYAPSLIMNITI"}}, "settings_in_all_cases": "Xenopus laevis; Oocyte", "key": {"[1]": {"substrate": "N[C@@H](Cc1ccc(O)cc1)C(=O)O", "description": "(§1) TP_TRANSPORTER: uptake in Xenopus laevis oocytes"}, "[2]": {"substrate": "N[C@@H](Cc1ccccc1)C(=O)O", "description": "as §1"}, "[3]": {"substrate": "N[C@@H](Cc1ccc(O)c(O)c1)C(=O)O", "description": "as §1"}, "[4]": {"substrate": "N[C@H](Cc1ccccc1)C(=O)O", "description": "as §1"}, "[5]": {"substrate": "N[C@@H](Cc1c[nH]c2ccccc12)C(=O)O", "description": "as §1"}}, "data": [{"protein": "B1", "values": [{"measurement": "Km", "setting": "[1]", "result": 636, "unit": "µM"}, {"measurement": "Km", "setting": "[2]", "result": 740, "unit": "µM"}, {"measurement": "Km", "setting": "[3]", "result": 1210, "unit": "µM"}, {"measurement": "Km", "setting": "[4]", "result": 2300, "unit": "µM"}, {"measurement": "Km", "setting": "[5]", "result": 452, "unit": "µM"}]}]}
